Reference: IntAct's records for PubMed 35512704

B1: Mothers against decapentaplegic homolog 4 (Homo sapiens), Q13485 (parent)
chain: MDNMSITNTPTSNDACLSIVHSLMCHRQGGESETFAKRAIESLVKKLKEKKDELDSLITAITTNGAHPSKCVTIQRTLDGRLQVAGRKGFPHVIYARLWRWPDLHKNELKHVKYCQYAFDLKCDSVCVNPYHYERVVSPGIDLSGLTLQSNAPSSMMVKDEYVHDFEGQPSLSTEGHSIQTIQHPPSNRASTETYSTPALLAPSESNATSTANFPNIPVASTSQPASILGGSHSEGLLQIASGPQPGQQQNGFTGQPATYHHNSTTTWTGSRTAPYTPNLPHHQNGHLQHHPPMPPHPGHYWPVHNELAFQPPISNHPAPEYWCSIAYFEMDVQVGETFKVPSSCPIVTVDGYVDPSGGDRFCLGQLSNVHRTEAIERARLHIGKGVQLECKGEGDVWVRCLSDHAVFVQSYYLDREAGRAPGDAVHKIYPSAYIKVFDLRQCHRQMQQQAATAQAAAAAQAAAVAGNIPGPGSVGGIAPAISLSAAAGIGVDDLRRLCILRMSFVKGWGPDYPRQSIKETPCWIEIHLHRALQLLDEVLHTMPIADPQPLD
partner: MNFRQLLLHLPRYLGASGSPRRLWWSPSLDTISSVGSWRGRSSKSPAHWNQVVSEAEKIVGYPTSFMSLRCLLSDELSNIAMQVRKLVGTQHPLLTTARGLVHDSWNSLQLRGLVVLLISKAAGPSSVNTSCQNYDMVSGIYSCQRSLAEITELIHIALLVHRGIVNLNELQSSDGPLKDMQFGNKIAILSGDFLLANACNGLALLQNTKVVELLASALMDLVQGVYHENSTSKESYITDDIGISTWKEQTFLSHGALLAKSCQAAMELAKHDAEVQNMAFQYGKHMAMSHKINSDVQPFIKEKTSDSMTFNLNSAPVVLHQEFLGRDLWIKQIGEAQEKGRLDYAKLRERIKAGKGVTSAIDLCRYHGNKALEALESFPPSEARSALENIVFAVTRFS
B2: Speckle-type POZ protein (Homo sapiens), O43791 (parent)
chain: MSRVPSPPPPAEMSSGPVAESWCYTQIKVVKFSYMWTINNFSFCREEMGEVIKSSTFSSGANDKLKWCLRVNPKGLDEESKDYLSLYLLLVSCPKSEVRAKFKFSILNAKGEETKAMESQRAYRFVQGKDWGFKKFIRRDFLLDEANGLLPDDKLTLFCEVSVVQDSVNISGQNTMNMVKVPECRLADELGGLWENSRFTDCCLCVAGQEFQAHKAILAARSPVFSAMFEHEMEESKKNRVEINDVEPEVFKEMMCFIYTGKAPNLDKMADDLLAAADKYALERLKVMCEDALCSNLSVENAAEILILADLHSADQLKTQAVDFINYHASDVLETSGWKSMVVSHPHLVAEAYRSLASAQCPFLGPPRKRLKQS
partner: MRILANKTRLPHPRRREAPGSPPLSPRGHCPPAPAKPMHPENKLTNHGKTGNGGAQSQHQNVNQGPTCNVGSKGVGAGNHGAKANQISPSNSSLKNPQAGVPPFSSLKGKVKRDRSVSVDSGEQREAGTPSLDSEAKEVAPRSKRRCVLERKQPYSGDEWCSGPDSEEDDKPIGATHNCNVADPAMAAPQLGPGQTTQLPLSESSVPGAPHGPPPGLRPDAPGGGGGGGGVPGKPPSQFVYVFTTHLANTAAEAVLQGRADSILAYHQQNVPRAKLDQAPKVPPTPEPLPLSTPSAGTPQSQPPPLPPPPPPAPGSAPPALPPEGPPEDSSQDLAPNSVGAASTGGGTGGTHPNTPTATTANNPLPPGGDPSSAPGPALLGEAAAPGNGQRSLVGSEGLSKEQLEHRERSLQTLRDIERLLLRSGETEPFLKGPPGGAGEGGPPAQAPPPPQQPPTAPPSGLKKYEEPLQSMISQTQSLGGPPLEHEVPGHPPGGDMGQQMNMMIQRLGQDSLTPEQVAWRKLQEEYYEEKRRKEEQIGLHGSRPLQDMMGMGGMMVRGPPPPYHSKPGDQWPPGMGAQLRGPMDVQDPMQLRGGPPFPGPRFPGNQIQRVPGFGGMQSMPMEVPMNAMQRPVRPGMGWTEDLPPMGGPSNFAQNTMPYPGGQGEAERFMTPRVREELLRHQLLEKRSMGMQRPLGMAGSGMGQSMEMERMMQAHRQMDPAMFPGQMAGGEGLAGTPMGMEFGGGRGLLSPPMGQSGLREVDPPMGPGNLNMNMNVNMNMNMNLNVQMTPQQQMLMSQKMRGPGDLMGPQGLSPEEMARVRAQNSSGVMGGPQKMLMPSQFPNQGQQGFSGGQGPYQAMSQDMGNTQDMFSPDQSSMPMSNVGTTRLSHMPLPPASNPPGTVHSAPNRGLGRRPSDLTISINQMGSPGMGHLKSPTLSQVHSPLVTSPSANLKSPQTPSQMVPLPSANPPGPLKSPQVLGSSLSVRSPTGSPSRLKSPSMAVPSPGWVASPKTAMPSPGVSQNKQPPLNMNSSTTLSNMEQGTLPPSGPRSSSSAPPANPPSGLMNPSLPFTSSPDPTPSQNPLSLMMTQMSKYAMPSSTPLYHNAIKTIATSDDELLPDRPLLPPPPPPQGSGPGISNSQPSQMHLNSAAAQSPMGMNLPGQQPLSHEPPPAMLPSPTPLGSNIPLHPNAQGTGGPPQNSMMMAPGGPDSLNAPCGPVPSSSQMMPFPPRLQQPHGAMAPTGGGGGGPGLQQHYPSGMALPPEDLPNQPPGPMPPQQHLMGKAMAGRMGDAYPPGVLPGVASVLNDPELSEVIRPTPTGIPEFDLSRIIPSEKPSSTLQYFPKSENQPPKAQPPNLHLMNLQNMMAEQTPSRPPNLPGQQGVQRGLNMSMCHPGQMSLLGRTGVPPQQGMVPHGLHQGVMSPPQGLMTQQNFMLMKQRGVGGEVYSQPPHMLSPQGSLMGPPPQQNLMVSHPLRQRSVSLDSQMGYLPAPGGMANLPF
B3: Mothers against decapentaplegic homolog 4 (Homo sapiens), Q13485 (parent)
chain: B1 chain
partner: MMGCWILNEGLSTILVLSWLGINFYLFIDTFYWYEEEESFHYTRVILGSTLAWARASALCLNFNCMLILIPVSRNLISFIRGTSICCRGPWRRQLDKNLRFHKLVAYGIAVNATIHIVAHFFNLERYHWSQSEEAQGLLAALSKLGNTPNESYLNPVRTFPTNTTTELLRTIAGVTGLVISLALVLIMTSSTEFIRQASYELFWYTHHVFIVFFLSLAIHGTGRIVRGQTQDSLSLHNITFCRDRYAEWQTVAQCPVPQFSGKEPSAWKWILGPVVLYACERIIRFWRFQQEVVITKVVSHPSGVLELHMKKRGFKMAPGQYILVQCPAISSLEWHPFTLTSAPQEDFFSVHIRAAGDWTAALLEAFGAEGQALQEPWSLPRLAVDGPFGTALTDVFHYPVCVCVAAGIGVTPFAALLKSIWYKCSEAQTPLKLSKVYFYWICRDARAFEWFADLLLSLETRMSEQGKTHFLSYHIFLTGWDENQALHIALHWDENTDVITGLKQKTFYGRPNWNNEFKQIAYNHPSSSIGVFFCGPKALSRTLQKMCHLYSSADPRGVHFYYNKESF

Variants of: B1
Settings: with dlp1_human PDSS2, Q86YH6

effect of a mutation on the interaction	Variant
with no effect	G386D

Variants of: B1
Settings: with dlp1_human PDSS2, Q86YH6
Remark: another data set of the same source

effect of a mutation on the interaction	Variant
with no effect	R361H

Variants of: B2
Settings: with bcl9l_human BCL9L

effect of a mutation on the interaction	Variant
with no effect	MSRVPSPPPPAEMSSGPVAESWCYTQIKVVKFSYMWTINNFSFCREEMGEVIKSSTFSSGANDKLKWCLRVNPKGLDEESKDYLSLCLLLVSCPKSEVRAKFKFSILNAKGEETKAMESQRAYRFVQGKDWGFKKFIRRDFLLDEANGLLPDDKLTLFCEVSVVQDSVNISGQNTMNMVKVPECRLADELGGLWENSRFTDCCLCVAGQEFQAHKAILAARSPVFSAMFEHEMEESKKNRVEINDVEPEVFKEMMCFIYTGKAPNLDKMADDLLAAADKYALERLKVMCEDALCSNLSVENAAEILILADLHSADQLKTQAVDFINYHASDVLETSGWKSMVVSHPHLVAEAYRSLASAQCPFLGPPRKRLKQS [Y87C]

Variants of: B2
Settings: with bcl9l_human BCL9L
Remark: another data set of the same source

effect of a mutation on the interaction	Variant
with no effect	MSRVPSPPPPAEMSSGPVAESWCYTQIKVVKFSYMWTINNFSFCREEMGEVIKSSTFSSGANDKLKWCLRVNPKGLDEESKDYLSLYLLLVSCPKSEVRAKFKFSILNAKGEETKAMESQRAYRFVQGKDWGLKKFIRRDFLLDEANGLLPDDKLTLFCEVSVVQDSVNISGQNTMNMVKVPECRLADELGGLWENSRFTDCCLCVAGQEFQAHKAILAARSPVFSAMFEHEMEESKKNRVEINDVEPEVFKEMMCFIYTGKAPNLDKMADDLLAAADKYALERLKVMCEDALCSNLSVENAAEILILADLHSADQLKTQAVDFINYHASDVLETSGWKSMVVSHPHLVAEAYRSLASAQCPFLGPPRKRLKQS [F133L]

Variants of: B2
Settings: with bcl9l_human BCL9L
Remark: another data set of the same source

effect of a mutation on the interaction	Variant
with no effect	MSRVPSPPPPAEMSSGPVAESWCYTQIKVVKFSYMWTINNFSFCREEMGEVIKSSTFSSGANDKLKWCLRVNPKGLDEESKDYLSLYLLLVSCPKSEVRAKCKFSILNAKGEETKAMESQRAYRFVQGKDWGFKKFIRRDFLLDEANGLLPDDKLTLFCEVSVVQDSVNISGQNTMNMVKVPECRLADELGGLWENSRFTDCCLCVAGQEFQAHKAILAARSPVFSAMFEHEMEESKKNRVEINDVEPEVFKEMMCFIYTGKAPNLDKMADDLLAAADKYALERLKVMCEDALCSNLSVENAAEILILADLHSADQLKTQAVDFINYHASDVLETSGWKSMVVSHPHLVAEAYRSLASAQCPFLGPPRKRLKQS [F102C]

Variants of: B3
Settings: with nox3_human NOX3, Q9HBY0

effect of a mutation on the interaction	Variant
with no effect	R361H

Variants of: B3
Settings: with nox3_human NOX3, Q9HBY0
Remark: another data set of the same source

effect of a mutation on the interaction	Variant
with no effect	G386D
